Paper PMC6346213
Values joined by “and” are separate entries in the source; they are usually repeats but may differ in a detail not shown here. Equal entries are not always repeated.

Molecular target: COP9 signalosome (CSN) holo-complex (human (endogenous in HEK293)) (UniProt Q13098)
Assay: SEC; co-fractionation of native HEK293 lysate (freeze-thaw, 0.5% NP-40); Yarra-SEC-4000, 50 mM HEPES pH 7.5, 150 mM NaCl, 4°C; 81 fractions quantified by SWATH-MS; co-elution of protein profiles scored with CCprofiler (5% FDR) and by manual inspection

UniProt Q13098, sequence (Q13098 whole entry, looked up, one chain of several): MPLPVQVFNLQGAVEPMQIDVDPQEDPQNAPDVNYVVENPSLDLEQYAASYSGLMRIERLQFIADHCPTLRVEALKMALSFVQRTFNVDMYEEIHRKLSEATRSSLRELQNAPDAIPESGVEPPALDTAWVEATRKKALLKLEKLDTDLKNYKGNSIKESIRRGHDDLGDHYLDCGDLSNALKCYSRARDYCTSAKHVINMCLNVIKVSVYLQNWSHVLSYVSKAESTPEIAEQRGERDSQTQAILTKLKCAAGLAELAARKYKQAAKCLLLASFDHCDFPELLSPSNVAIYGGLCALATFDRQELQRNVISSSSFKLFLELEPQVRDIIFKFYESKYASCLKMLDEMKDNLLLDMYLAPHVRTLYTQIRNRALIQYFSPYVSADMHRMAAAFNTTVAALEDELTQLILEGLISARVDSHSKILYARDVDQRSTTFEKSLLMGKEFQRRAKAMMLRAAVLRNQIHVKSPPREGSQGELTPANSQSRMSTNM

In the case of “E3-CRL substrate of the COP9 signalosome (components CUL4A and DDB2) (from UniProt Q13619 1-759; Q92466 1-427) (complex)”, the substrate-bound fraction of CSN holo-complex is reported as 25% and 22%.
